From patent US20260250366A1 (RIN INSTITUTE, published 2026)

Assays:
[1] = target: AMU1114 (Δ22-28, F157E) mutant (Homo sapiens (Human), UniProt P0DOX7 1-214); assay: ELISA, receptor immobilized, detection with HRP anti-human Kappa chain antibody; compared with PBS
Experimental: (§1) The concentration of each of the human and mouse urokinase receptors was adjusted with PBS to 1 μg/mL. The resultant solution was dispensed in the wells of a 96-well plate in a volume of 50 μL/well, allowed to stand still at room temperature for 90 minutes to immobilize the receptor. To the plate having the receptor immobilized thereon, TBS-T containing 1% BSA was dispensed in a volume of 300 μL/well. The plate was allowed to stand still at room temperature for 60 minutes to block the plate. To the plate blocked, the sample (mutant) adjusted in concentration to 1000 ng/mL, 111.1 ng/mL or 12.3 ng/mL was added in a volume of 50 μL/well and allowed to react at room temperature for 60 minutes. After washing with TBS-T, HRP-conjugated anti-human Kappa chain antibody (Bethyl) diluted with 1% BSA-containing TBS-T to 1/50,000 fold was dispensed in a volume of 50 μL/well and allowed to react at room temperature for 60 minutes. After washing, a TMB (3,3′,5,5′-tetramethylbenzidine) coloring reagent was allowed to react for 15 minutes. The reaction was terminated with 2N H₂SO₄ (30 μL/well). Absorbance at 450 nm was measured.

AMU1114 = target: T1, AMU1114 (Homo sapiens (Human), UniProt P0DOX7 1-214); assay: assay not named in the sentence (ELISA of FIG. 5 presumably)
T1 construct: Complex of a fusion heavy chain (Fab region linked to a prourokinase mutant) and an antibody light chain; F396 of the heavy chain corresponds to F157 of urokinase
Experimental: as §1

T1 sequence (P0DOX7 other isoform, or with tags, fused parts or gaps limits assumed, chain 2 of 2, other chains not shown): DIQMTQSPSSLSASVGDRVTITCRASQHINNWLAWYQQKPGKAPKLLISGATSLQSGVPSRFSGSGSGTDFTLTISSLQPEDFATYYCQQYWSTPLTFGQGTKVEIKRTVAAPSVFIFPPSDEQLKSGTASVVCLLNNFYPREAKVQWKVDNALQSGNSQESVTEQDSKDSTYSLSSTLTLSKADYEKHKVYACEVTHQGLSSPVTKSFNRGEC
AMU1114 (Δ22-28, F157E) mutant, sequence (P0DOX7 other isoform, or with tags, fused parts or gaps F157E F157E limits assumed, chain 2 of 2, other chains not shown): as the sequence (P0DOX7 other isoform, or with tags, fused parts or gaps limits assumed, chain 2 of 2, other chains not shown) above

B1: mouse urokinase receptor (receptor)
chain: LQCMQCESNQSCLVEECALGQDLCRTTVLREWQDDRELEVVTRGCAHSEKTNRTMSYRMGSMIISLTETVCATNLCNRPRPGARGRAFPQGRYLECASCTSLDQSCERGREQSLQCRYPTEHCIEVVTLQSTERSLKDEDYTRGCGSLPGCPGTAGFHSNQTFHFLKCCNYTHCNGGPVLDLQSFPPNGFQCYSCEGNNTLGCSSEEASLINCRGPMNQCLVATGLDVLGNRSYTVRGCATASWCQGSHVADSFPTHLNVSVSCCHGSGCNSPTGHHHHHH
notes: Immobilized on the plate at 1 µg/mL
B1: no binding [1]; no binding (AMU1114).
